The DeepSol protein solubility set

Experiment: soluble on expression in E. coli; label from the status in PepcDB or PDB records

| Sequence | soluble on expression in E. coli |
| --- | --- |
| MGHHHHHHHHHHSSGHIEGRHMKLEFMNLLSENKKENYYYCGENKVALVTGAGRGIGREIAKMLAKSVSHVICISRTQKSCDSVVDEIKSFGYESSGYAGDVSKKEEISEVINKILTEHKNVDILVNNAGITRDNLFLRMKNDEWEDVLRTNLNSLFYITQPISKRMINNRYGRIINISSIVGLTGNVGQANYSSSKAGVIGFTKSLAKELASRNITVNAIAPGFISSDMTDKISEQIKKNIISNIPAGRMGTPEEVANLACFLSSDKSGYINGRVFVIDGGLSP | soluble |
| MGHHHHHHMLENIRDAVRKFLTGSTPYEKAVDEFIKDLQKSLISSDVNVKLVFSLTAKIKERLNKEKPPSVLERKEWFISIVYDELSKLFGGDKEPNVNPTKLPFIIMLVGVQGSGKTTTAGKLAYFYKKRGYKVGLVAADVYRPAAYDQLLQLGNQIGVQVYGEPNNQNPIEIAKKGVDIFVKNKMDIIIVDTAGRHGYGEETKLLEEMKEMYDVLKPDDVILVIDASIGQKAYDLASRFHQASPIGSVIITKMDGTAKGGGALSAVVATGATIKFIGTGEKIDELETFNAKRFVSRILGMGDIESILEKVKGLEEYDKIQKKMEDVMEGKGKLTLRDVYAQIIALRKMGPLSKVLQHIPGLGIMLPTPSEDQLKIGEEKIRRWLAALNSMTYKELENPNIIDKSRMRRIAEGSGLEVEEVRELLEWYNNMNRLLKMVK | soluble |
| MGHHHHHHMSEFYKLAPVDKKGQPFPFDQLKGKVVLIVNVASKCGFTPQYKELEALYKRYKDEGFTIIGFPCNQFGHQEPGSDEEIAQFCQLNYGVTFPIMKKIDVNGGNEDPVYKFLKSQKSGMLGLRGIKWNFEKFLVDKKGKVYERYSSLTKPSSLSETIEELLKEVE | soluble |
| MGHHHHHHSHAESIKNQMTVKEWEKVFEMSQDKNLYHNLCTSLFPTIHGNDEVKRGVLLMLFGGVPKTTGEGTSLRGDINVCIVGDPSTAKSQFLKHVEEFSPRAVYTSGKASSAAGLTAAVVRDEESHEFVIEAGALMLADNGVCCIDEFDKMDVRDQVAIHEAMEQQTISITKAGVKATLNARTSILAAANPISGHYDRSKSLKQNINLSAPIMSRFDLFFILVDECNEVTDYAIARRIVDLHSRIEESIDRVYSLDDIRRYLLFARQFKPKISKESEDFIVEQYKHLRQRDGSGVTKSSWRITVRQLESMIRLSEAMARMHCCDEVQPKHVKEAFRLLNKSIIRVETPDVNLDQEEE | not soluble |
| MGHHHHHHSHCDKCEGRGGKKGAVECCPNCRGTGMQIRIHQIGPGMVQQIQSVCMECQGHGERISPKDRCKSCNGR | soluble |
| MGHHHHHHSHEEEGSPGGREDGFTAEHLAAEAMAADMDPWLVFDARTTPATELDAWLAKYPPSQVTRYGDPGSPNSEPVGWIAVYGQGYSPNSGDVQGLQAAWEALQTSGRPITPGTLRQLAITHHVLSGKWLMHLAPGFKLDHAWAGIARAVVEGRLQVAKVSPRAKEGGRQVICVYTDDFTDRLGVLEADSAIRAAGIKCLLTYKPDVYTYLGIYRANRWHLCPTLYESRFQLGGSARGSRVLDRANNVELT | soluble |
| MGHHHHHHSHEPRVNTSALQKIAADMSNIIENLDTRELHFEGEEVDYDVSPSDPKIQEVYIPFSAIYNTQGFKEPNIQTYLSGCPIKAQVLEVERFTSTTRVPSINLYTIELTHGEFKWQVKRKFKHFQEFHRELLKYKAFIRIPIPTRRHTFRRQN | not soluble |
| MGHHHHHHSHKPVPWVEKYRPKCVDEVAFQEEVVAVLKKSLEGADLPNLLFYGPPGTGKTSTILAAARELFGPELFRLRVLELNASDERGIQVVREKVKNFAQLTVSGSRSDGKPCPPFKIVILDEADSMTSAAQAALRRTMEKESKTTRFCLICNYVSRIIEPLTSRCSKFRFKPLSDKIQQQRLLDIAKKENVKISDEGIAYLVKVSEGDLRKAITFLQSATRLTGGKEITEKVITDIAGVIPAEKIDGVFAACQSGSFDKLEAVVKDLIDEGHAATQLVNQLHDVVVENNLSDKQKSIITEKLAEVDKCLADGADEHLQLISLCATVMQQLSQNC | not soluble |
| MGHHHHHHSHMAASFAFLRDVRPYKTSWRVQVKVLHSWCQYTNMTGETLKLVLVNSQGVKIHASVKKDLVSKYVNNLPLNEWTFIETFALNHASGQFRPTGHLYKMSFVTGTQVIRCDS | soluble |
| MGHHHHHHSHMAFCAILLVPSLCRMPSLPTSPWAFPVHWAGFMFKPLDWQGNDFFPPQDEVLAPCLGIKTPLKHEPCASLPFSVLFQSSASQSLLGTMGSLSPHLCGHTMCPVNPELPLSFQADHRSAQPDACSPLCHPSSLLPSFHTASLPFSIHAHHSPLPCDLDPPLYLAETVSLLEEWGPPSSCPMQCKLTSHPARLTHLPPCLWGFAVALKPSWAGLAPSLLPPPRMSLCRPLSFLRHQCPWLPWQAHQGLVPWSPSMVAAACIVSPSGHCRCQPFIPHVFLGHGGLTSVSGECG | not soluble |
| MGHHHHHHSHMAFRQPNTKELKVIRKALSYYGSGDFLSHYALLVKEGEKKEVYGVSKELYGVIGELNPHYAGVKIGEVGRRFRFSLEGTFWLLRNSRNRVWVNERGEMLFLYGRDIFAGSVERASEFGENSIVFVCNRFDDVLGIGRSRHSSDELSNLPEDKVFVENLVDRGEYLRH | soluble |
| MGHHHHHHSHMDALSPSPAIPSNTDYPGPHSFDVSFQQSSTAKSATWTYSTELKKLYCQIAKTCPIQIKVMTPPPQGAVIRAMPVYKKAEHVTEVVKRCPNHELSREFNEGQIAPPSHLIRVEGNSHAQYVEDPITGRQSVLVPYEPPQVGTEFTTVLYNFMCNSSCVGGMNRRPILIIVTLETRDGQVLGRRCFEARICACPGRDRKADEDSIRKQQVSDSTKNGDGTKRPFRQNTHGIQM | not soluble |
| MGHHHHHHSHMDGTRTSLDIEEYSDTEVQKNQVLTLEEWQDKWVNGKTAFHQEQGHQLLKKHLDTFLKGKSGLRVFFPLCGKAVEMKWFADRGHSVVGVEISELGIQEFFTEQNLSYSEEPITEIPGTKVFKSSSGNISLYCCSIFDLPRTNIGKFDMIWDRGALVAINPGDRKCYADTMFSLLGKKFQYLLCVLSYDPTKHPGPPFYVPHAEIERLFGKICNIRRLEKVDAFEERHKSWGIDCLFEKLYLLTEK | soluble |
| MGHHHHHHSHMDSTTVNYFALFEVISHSFVRKLAPNEFPHKLYIQNYTSAVPGTCLTIRKWLFTTEEEILLNDNDLAVTYFFHQAVDDVKKGYIKAEEKSYQLQKLYEQRKMVMYLNMLRTCEGYNEIIFPHCACDSRRKGHVITAISITHFKLHACTEEGQLENQVIAFEWDEMQRWDTDEEGMAFCFEYARGEKKPRWVKIFTPYFNYMHECFERVFCELKWRKEEY | not soluble |
| MGHHHHHHSHMGVPYSVLEPVLERCTPDQLYRIEEYNHVLIEETDQLWKVHCHRDFKEERPEEYESWREMYLRLQDAREQRLRVLTKNIQFAHANKP | soluble |
| MGHHHHHHSHMIGKCTHVVDCRETMGMGEGGGIAQRGTFAQCGSEVLAVAMSPGRRHITKPVCEITFALREANIMTSTIVLNAGAGVPQDAPSAGAGSLFGLTPAEVEQMKRHKLLVVHLGGVKNHITYKARLILRNVDRPCIIICEYPVDFEDFAKIGVRTRAVMPDEPKTKGTIVDIVSGVIRGETCPQEKLDEIIRKVKLALGGA | soluble |
| MGHHHHHHSHMKPSGEDQAALAAGPWEECFQAAVQLALRAGQIIRKALTEEKRVSTKTSAADLVTETDHLVEDLIISELRERFPSHRFIAEEAAASGAKCVLTHSPTWIIDPIDGTCNFVHRFPTVAVSIGFAVRQELEFGVIYHCTEERLYTGRRGRGAFCNGQRLRVSGETDLSKALVLTEIGPKRDPATLKLFLSNMERLLHAKAHGVRVIGSSTLALCHLASGAADAYYQFGLHCWDLAAATVIIREAGGIVIDTSGGPLDLMACRVVAASTREMAMLIAQALQTINYGRDDEK | not soluble |
| MGHHHHHHSHMLLTMPGGVAKAGYLHKKGGTQLQLLKWPLRFVIIHKRCVYYFKSSTSASPQGAFSLSGYNRVMRAAEETTSNNVFPFKIIHISKKHRTWFFSASSEEERKSWMALLRREIGHFHEKKDLP | soluble |
| MGHHHHHHSHMLTKFETKSARVKGLSFHPKRPWILTSLHNGVIQLWDYRMCTLIDKFDEHDGPVRGIDFHKQQPLFVSGGDDYKIKVWNYKLRRCLFTLLGHLDYIRTTFFHHEYPWILSASDDQTIRVWNWQSRTCVCVLTGHNHYVMCAQFHPTEDLVVSASLDQTVRVWDISGLRKKNLSPGAVESDVRGITGVDLFGTTDAVVKHVLEGHDRGVNWAAFHPTMPLIVSGADDRQVKIWRMNESKAWEVDTCRGHYNNVSCAVFHPRQELILSNSEDKSIRVWDMSKRTGVQTFRRDHDRFWVLAAHPNLNLFAAGHDGGMIVFKLERERPA | not soluble |
| MGHHHHHHSHMMSPGLLLKPWWGGAQSEMGRNGMLEGCSVMSVGASRLGEGRVRPRAHSRRPVTRPRWRAAGPCTGTCQGGSHSRTLVLRLKAVSTTPTSANDLVQIKFRRDGGNRVVEALNLSEKRKDRKALCFSQSLHLQGEEIELTALSRSFQLRNVYFMISNI | not soluble |
| MGHHHHHHSHMNLGKESRAQTLQNGRRHIHHLGNQLQLNQHCLDTAFNFFKMAVSRHLTRGRKMAHVIAACLYLVCRTEGTPHMLLDLSDLLQVNVYVLGKTFLLLARELCINAPAIDPCLYIPRFAHLLEFGEKNHEVSMTALRLLQRMKRDWMHTGRRPSGLCGAALLVAARMHDFRRTVKEVISVVKVCESTLRKRLTEFEDTPTSQLTIDEF | not soluble |
| MGHHHHHHSHMNSRRRKAQFFLGTTNKRAKTVVLHIDGLDDTSRRNLCEEALLKIKGVISFTFQMAVQRCVVRIRSDLKAEALASAIASTKVMKAQQVVKSESGEEMLVPFQDTPVEVEQNTELPDYLPEDESPTKEQDKAVSRVGSHPEGGASWLSTAANFLSRSFYW | not soluble |
| MGHHHHHHSHMPARTDSVIIADQTPTPTRFLKNCEEVGLFNELASSFEHEFKKAADEDEKKARSRTVAKKLVAAAGPLDMSLPSTPDIKIKEEEPVEVDSSPPDSPASSPCSPPLKEKEVTPKPVLISTPTPTIVRPGSLPLHLGYDPLHPTLPSPTSVITQAPPSNRQMGSPTGSLPLVMHLANGQTMPVLPGPPVQMPSVISLARPVSMVPNIPGIPGPPVNSSGSISPSGHPIPSEAKMRLKATLTHQVSSINGGCGMVVGTASTMVTARPEQSQILIQHPDAPSPAQPQVSPAQPTPSTGGRRRRTVDEDPDERRQRFLERNRAAASRCRQKRKLWVSSLEKKAEELTSQNIQLSNEVTLLRNEVAQLKQLLLAHKDCPVTALQKKTQGYLESPKESSEPTGSPAPVIQHSSATAPSNGLSVRSAAEAVATSVLTQMA | soluble |
| MGHHHHHHSHMPASLALLQPRAMMKTLSSGNCTLSVPAKNSYRMVVLGASRVGKSSIVSRFLNGRFEDQYTPTIEDFHRKVYNIRGDMYQLDILDTSGNHPFPAMRRLSILTGDVFILVFSLDNRESFDEVKRLQKQILEVKSCLKNKTKEAAELPMVICGNKNDHGELCRQVPTTEAELLVSGDENCAYFEVSAKKNTNVDEMFYVLFSMAKLPHEMSPALHRKISVQYGDAFHPRPFCMRRVKEMDAYGMVSPFARRPSVNSDLKYIKAKVLREGQARERDKCTIQ | not soluble |
| MGHHHHHHSHMPATLLRAVARSHHILSKAHQCRRIGHLMLKPLKEFENTTCSTLTIRQSLDLFLPDKTASGLNKSQILEMNQKKSDTSMLSPLNAARCQDEKAHLPTMKSFGTHRRVTHKPNLLGSKWFIKILKRHFSSVSTETFVPKQDFPQVKRPLKASRTRQPSRTNLPVLSVNEDLMHCTAFATADEYHLGNLSQDLASHGYVEVTSLPRGTSS | not soluble |
